Self-cleavage data for 39 variants are collected here from the RNAGym collection of RNA variant scans (doi:10.7554/elife.80360).

B1: CPEB3 Ribozyme (parent)
chain: GGGGGCCACAGCAGAAGCGUUCACGUCGCGGCCCCUGUCAGAUUCUGGUGAAUCUGCGAAUUCUGCUGU

In the data set the parent is B1. In words: self-cleavage, relative activity (ratio to wild type); higher = more cleavage; co-transcriptional.
Take AGGGGCCACAGCAGAAGCGUUCACGUCGCGCCCCCUGUCAGAUUCUGGUGAAUCUGCGAAUUCUGCUGU [G1A G31C]: the self-cleavage worked out at 0.0308.
The value for AGGGGCCACAGCAGAAGCGUUCACGUCGCGACCCCUGUCAGAUUCUGGUGAAUCUGCGAAUUCUGCUGU [G1A G31A] was 0.0627; that for AGGGGCCACAGCAGAAGCGUUCACGUCGCGGCCCCUGUCAGAUUCUGGUGAAUCUGCGAAUUCUACUGU [G1A G65A] was 0.0429; that for AGGGGCCACAGCAGAAGCGUUCACGUCGCGGCCCCUGUCAGAUUCUGGUGAAUCUGCGAAUUCUUCUGU [G1A G65U] was 0.106.
Regarding AGGGGCCACAGCAGAAGCGUUCACGUCGCGGCCCCUGUCAGAUUCUGGUGAAUCUGCGAAUUCUCCUGU [G1A G65C], the self-cleavage was found to be 0.0479.
The value for AGGGGCCACAGCAGAAGCGUUCACGUCUCGGCCCCUGUCAGAUUCUGGUGAAUCUGCGAAUUCUGCUGU [G1A G28U] was 0.0362; that for AGGGGCCACAGCAGAAGCGUUCACGUCGCGGCCCCUGUCAGAUUCUGGAGAAUCUGCGAAUUCUGCUGU [G1A U49A] was 0.075; that for AGGGGCCACAGCAGAAGCGUUCACGUCGCGGCCCCUGUCAGAUUCUGGGGAAUCUGCGAAUUCUGCUGU [G1A U49G] was 0.13.
AGGGGCCACAGCAGAAGCGUUCACGUCGCGGCCCCUGUCAGAUUCUGGUGAAUCUGCGAAUUCUGCUUU [G1A G68U]: the self-cleavage was 0.159.
As to AGGGGCCACAGCAGAAGCGUUCACGUCGCGGCCCCUGUCAGAUUCUGGUGAAUCUGCGAAUUCUGCUCU [G1A G68C], the self-cleavage turned out to be 0.222.
Regarding AGGGGCCACAGCAGAAGCGUUCACGUCGCGGCCCCUGUCAGAUUCUGGUGAAUCUGCGAAUUCUGCUAU [G1A G68A], the self-cleavage is 0.136.
The value for AGGGGCCACAGCAGAAGCGUUCACGUCGCGGCCCCUGUCAGAUUCGGGUGAAUCUGCGAAUUCUGCUGU [G1A U46G] was 0.0453; that for AGGGGCCACAGCAGAAGCGUUCACGUCGCGGCCCCUGUCAGAUUCAGGUGAAUCUGCGAAUUCUGCUGU [G1A U46A] was 0.134; that for AGGGGCCACAGCAGAAGCGUUCACGUCGCGGCCCCUGUCAGAUUCCGGUGAAUCUGCGAAUUCUGCUGU [G1A U46C] was 0.0905.
In the case of AGGGGCCACAGCAGAAGCGUUCACGUCGCGGCCCCCGUCAGAUUCUGGUGAAUCUGCGAAUUCUGCUGU [G1A U36C], the self-cleavage stood at 0.0487.
Consider AGGGGCCACAGCAGAAGCGUUCACGUCGCGGCCCCGGUCAGAUUCUGGUGAAUCUGCGAAUUCUGCUGU [G1A U36G], for which the self-cleavage stood at 0.0321.
AGGGGCCACAGCAGAAGCGUUCACGUCGCGGCCCCAGUCAGAUUCUGGUGAAUCUGCGAAUUCUGCUGU [G1A U36A]: the self-cleavage is 0.0492.
Regarding CGGGGCCACAGCAGAUGCGUUCACGUCGCGGCCCCUGUCAGAUUCUGGUGAAUCUGCGAAUUCUGCUGU [G1C A16U], the self-cleavage worked out at 0.159.
For CGGGGCCACAGCAGAGGCGUUCACGUCGCGGCCCCUGUCAGAUUCUGGUGAAUCUGCGAAUUCUGCUGU [G1C A16G], the self-cleavage was 0.254.
Regarding CGGGGCCACAGCAGGAGCGUUCACGUCGCGGCCCCUGUCAGAUUCUGGUGAAUCUGCGAAUUCUGCUGU [G1C A15G], the self-cleavage came out at 0.228.
As for CGGGGCCACAGCAGCAGCGUUCACGUCGCGGCCCCUGUCAGAUUCUGGUGAAUCUGCGAAUUCUGCUGU [G1C A15C], the self-cleavage was found to be 0.266.
For the variant CGGGGCCACAGCAGAAGCGUUCACGUCGCGGCCCCUGUCAGAUUCUGGUGCAUCUGCGAAUUCUGCUGU [G1C A51C], the self-cleavage came out at 0.149.
Consider CGGGGCCACAGCAGAAGCGUUCACGUCGCGGCCCCUGUCAGAUUCUGGUGUAUCUGCGAAUUCUGCUGU [G1C A51U], for which the self-cleavage came out at 0.192.
With AGGGGCCACAGCAGAAGCGUUCACGUCGCGGCCCCUGUCAGAUUCUGGUGAAUCUGCGAACUCUGCUGU [G1A U61C], the self-cleavage is 0.0531.
The value for AGGGGCCACAGCAGAAGCGUUCACGUCGCGGCCCCUGCCAGAUUCUGGUGAAUCUGCGAAUUCUGCUGU [G1A U38C] was 0.0492; that for AGGGGCCACAGCAGAAGCGUUCACGUCGCGGCCCCUUUCAGAUUCUGGUGAAUCUGCGAAUUCUGCUGU [G1A G37U] was 0.104; that for AGGGGCCACAGCAGAAGCGUUCACGUCGCGGCCCCUCUCAGAUUCUGGUGAAUCUGCGAAUUCUGCUGU [G1A G37C] was 0.0318.
Take AGGGGCCACAGCAGAAGCGUUCACGUCGCGGCCCCUGUCAGAUCCUGGUGAAUCUGCGAAUUCUGCUGU [G1A U44C]: the self-cleavage was found to be 0.135.
AGGGGCCACAGCAGAAGCGUUCACGUCGCGGCCCCUGUCAGAUACUGGUGAAUCUGCGAAUUCUGCUGU [G1A U44A]: the self-cleavage was found to be 0.0757.
Regarding CGGGGCCACAGCAGAAGCGUUCACGUCGCGGCCCCUGUCAGGUUCUGGUGAAUCUGCGAAUUCUGCUGU [G1C A42G], the self-cleavage is 0.152.
As for CGGGGCCACAGCAGAAGCGUUCACGUCGCGGCCCCUGUCAGCUUCUGGUGAAUCUGCGAAUUCUGCUGU [G1C A42C], the self-cleavage was determined as 0.274.
As for CGGGGCCACAGCAGAAGCGUUCUCGUCGCGGCCCCUGUCAGAUUCUGGUGAAUCUGCGAAUUCUGCUGU [G1C A23U], the self-cleavage was 0.222.
Consider CGGGGCCACAGCAGAAGCGUUCGCGUCGCGGCCCCUGUCAGAUUCUGGUGAAUCUGCGAAUUCUGCUGU [G1C A23G], for which the self-cleavage came out at 0.149.
On to CGGGGCCACAGCAGAAGCGUUCCCGUCGCGGCCCCUGUCAGAUUCUGGUGAAUCUGCGAAUUCUGCUGU [G1C A23C], for which the self-cleavage came out at 0.25.
Regarding AGGGGCCACAGCAGAAGCGUUCACGUCGCGGCCCCUGUCAGAUUCUGGUGAAUCUGCGAAUUCAGCUGU [G1A U64A], the self-cleavage was 0.134.
For the variant AGGGGCCACAGCAGAAGCGUUCACGUCGCGGCCCCUGUCAGAUUCUGGUGAAUCUGCGAAUUCGGCUGU [G1A U64G], the self-cleavage came to 0.0694.
The value for AGGGGCCACAGCAGAAGCGUUCACGUCGCGGCCCCUGUCAGAUUCUGGUGAAUCCGCGAAUUCUGCUGU [G1A U55C] was 0.0976; that for AGGGGCCACAGCAGAAGCGUUCACGUCGCGGCCCCUGUCAGAUUCUGGUGAAUCAGCGAAUUCUGCUGU [G1A U55A] was 0.059.
The value for AGGGGCCACAGCAGAAGCGUUCACGUCGCGGCCCCUGUCAGAUUCUGUUGAAUCUGCGAAUUCUGCUGU [G1A G48U] was 0.045.
